Tests used:
[1] = target: T1, Human amylin (1-37) (human); assay: cross-linking; details: remark: other sources report otherwise
T1 chain: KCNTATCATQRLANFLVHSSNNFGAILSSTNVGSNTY

[2] = target: T1, Human amylin (1-37) (human); assay: cross-linking; details: remark: other sources report otherwise

stoichiometry N [1]: 6
stoichiometry N [2]: < 6
Binder: KCNTATCATQRLANFLVHSSNNFGAILSSTNVGSNTY [Human amylin (1-37)]

Reference: PMC4373355
